Literature values in publication PMC6963985.

Biological target: CTLA-4 (Homo sapiens) (UniProt P16410)
Chain of UniProt P16410 (P16410 36-161): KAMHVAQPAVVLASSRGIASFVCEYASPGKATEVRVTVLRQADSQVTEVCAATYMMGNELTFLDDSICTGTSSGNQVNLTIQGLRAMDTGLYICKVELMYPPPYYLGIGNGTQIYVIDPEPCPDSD

Kd: 5.9 nM
Substance: Tremelimumab
